Assay results taken from the supplement of paper PMC9170038.

Tested on: MS2 coat protein
Test: apparent KD of MS2 coat protein; designed switch direction (-1 OFF switch, 1 ON switch): -1; higher = weaker reporter binding
In short: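 On Illumina chips, designed RNA switches with common flanks were made by stalled E. coli RNA polymerase. Titrations with SNAP-549-labelled MS2 coat protein, doubling from 0.7 or 1.5 nM to 3 µM, were done with no input, with 200 uM small-molecule ligand, or with an oligonucleotide input. Apparent KD is the median per design over clusters, from curve fits of normalised cluster fluorescence.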

[1] = Eterna round: R95, input ligand: microRNA oligo, concentration not stated
[2] = Eterna round: R95, input ligand: FMN 200 uM
[3] = Eterna round: R95, input ligand: none
[4] = input ligand: microRNA oligo, concentration not stated

| Sequence | apparent KD of MS2 coat protein [1] [nM] | apparent KD of MS2 coat protein (input ligand: FMN 200 uM) [nM] | apparent KD of MS2 coat protein (input ligand: none) [nM] | also measured |
| --- | --- | --- | --- | --- |
| AAUUCACAUGAGGAUCACCCAUGUCAGGAUAUGGUUUCACGUGUUUCUGUGCUUGAGGCCAGAAGGGACAGCUA (puzzle: Exclusion 1) | 50.3 | – | – | – |
| CCUCCCUGAGGAUAUCCACCCUCAUACAUGAGGAUCACCCAUGUUCAACCCUGGGUUCCCGGAGAAGGCAGUUUCC [Megrez-2.4] (Eterna round: R97, puzzle: Exclusion 5) | – | 226 | 235 | – |
| AGAUAACAUGAGGAUCACCCAUGUGAGGAUAUUUACCCAAGAGCUUCGGCUCUCAGGUGAAGAAGGCACAUUGA [EX1 #58] (Eterna round: R97, puzzle: Exclusion 1) | – | 316 | 86.4 | – |
| CGAUGUUAUGUCAGGAUAUACAUUGCGAAAGCAAUGUAGAAGGGACAUGAGGAUCACCCAUGUCCUAACCAUCG [Omei A 3] (puzzle: Brourd's mod of Exclusion 4) | 12.7 | – | – | – |
| CUGGUCCGAGGAUAUAUUAAGUGAAACAUGAGGAUCACCCAUGUUAUUUGAUGGAAGAAAAUAGAAGGCGGACUAG [Mat - Exclusion 5 - JL mod - D59] (puzzle: Exclusion 5) | 86.9 | – | – | apparent KD of MS2 coat protein [2]: 29.9 nM; apparent KD of MS2 coat protein [3]: 62.5 nM |
| UAUACUAGAUAGGAUAUACUAUAUAUAUUUUUCGUAGAAGGAUCUACAUGAGGAUCACCCAUGUUAACAGCAGU [JR_E6_Sub007] (puzzle: Exclusion 6) | 42.9 | – | – | apparent KD of MS2 coat protein [2]: 45 nM; apparent KD of MS2 coat protein [3]: 41.5 nM |
| ACUUAUAGAGGAUAUACAGUAUAUUACAUGAGGAUCACCCAUGUUCUUCAAUGUAUAUAUGUAGAAGGCUAAGGAA [EX-5 Malc#6] (puzzle: Exclusion 5) | 183 | – | – | – |
| CAGUACUGAGGAUAUACAUGAGGAUCACCCAUGUGUUCCAGCUAGGAAACUUGCAAAAGUAGAAGGCAGUACUG [salish99_ex3_r3_093x] (puzzle: Exclusion 3) | 11.9 | – | – | – |
| UACGAACUAGGAUAUGCAAUGGGCUCGCUUUCCUUCGAUAAACUUGAGGAUCACCCAAGUAGAAGGAGUUUGUA [Mod 38 - Jieux - Exclusion 2] (Eterna round: R97, puzzle: Exclusion 2) | – | 40.8 | 16.6 | – |
| ACAUUGUAUGUGAGGAUAUCGAUGGGAUGGGUUGUCGAGAAGGCACAUGAGGAUCACCCAUGUAAGGGACAGCA [JR_BMEx4_Sub029] (Eterna round: R97, puzzle: Brourd's mod of Exclusion 4) | – | 295 | 83.1 | – |
| UUCCUGUCAGGAUAUGACUAGAGGCACGAAAGUGUGUUUAGUUAGAAGGGACAUGAGGAUCACCCAUGUAGUCC [Bring Us a Shrubbery-20] (puzzle: Exclusion 4) | 21.9 | – | – | – |
| GACUAAACACGAGGAUAUGCCUGGGAAGAACAGGCAGAAGGCGUGACAUGAGGAUCACCCAUGUAGCCGGGCUAUUCUCGUACG [Tirearerar] (Eterna round: R96, puzzle: Exclusion NG 1) | – | 30.8 | 30.3 | apparent KD of MS2 coat protein [4]: 24.7 nM |
| UAUAUAUAGUAAGGAUAUGUAAUCAUUUUAUAAACAGAAGGUACUGACAUGAGGAUCACCCAUGUUUUAGUGUGGGCAUGUAGA [JMF's solution 31] (Eterna round: R96, puzzle: Exclusion NG 1) | – | – | – | apparent KD of MS2 coat protein [4]: 64.6 nM |
| AGCUGUGGCCGAGGAUAUCUAACAAUCCAAACCGAAAUAUAAUCGGACAUGAGGAUCACCCAUGUAGAGAAGGCGGUCUCAGCA [Eli eng2 - 075] (Eterna round: R96, puzzle: Exclusion NG 2) | – | – | – | apparent KD of MS2 coat protein [4]: 32.7 nM |
| AAGAAACAUGAGGAUCACCCAUGUGAGGAUAUGUAAAAUAAAAUAAAAUAAAUAAUAAACAGAAGGCACAAAGG [Mat - Mod of Hog D17] (puzzle: Exclusion 1) | 58.6 | – | – | – |
| GAUAAGGUAGGAUAUACGAAUAAAAAGGGUAGAAGAAGAACACAUGAGGAUCACCCAUGUAGAAGGACCAAGAG [Mat - Exclusion 2 - Mod of my Tesla design - D23] (puzzle: Exclusion 2) | 20.6 | – | – | apparent KD of MS2 coat protein [2]: 43 nM; apparent KD of MS2 coat protein [3]: 19.6 nM |
| UUAAAGUCAGGAUAUACAUGAGGAUCACCCAUGUAAAAUUUUAAUUUAAUUUUAAGGUGUAGAAGGGACAAUUU [Ex3 #2] (Eterna round: R97, puzzle: Exclusion 3) | – | 29.8 | 31.1 | – |
| UAAAAGCUAGGAUAUGCAAGGUCCGACAUGAGGAUCACCCAUGUGCUCCUAUGCACAUUUGCAGAAGGAGCGAAAA [EX5 A.6] (Eterna round: R97, puzzle: Exclusion 5) | – | 537 | 83 | – |
| UCUCGGUAAGGAUAUGCGCCGGGAUGAAGAUCCCGAAGCAUGCAGAAGGUACAUGAGGAUCACCCAUGUCUGUU [Eternabot (L1) Solution 76] (Eterna round: R97, puzzle: Exclusion 4) | – | 47.2 | 20.5 | – |
| GAUGCACAUGAGGAUCACCCAUGUGAGGAUAUCAUUCCUAGAUCAGUCGGUCAGGAAAUGAGAAGGCGCCGGGA [Eternabot (L2) Solution 5] (Eterna round: R97, puzzle: Exclusion 1) | – | 28.6 | 23.6 | – |
| AUAUUUAAUAUAGGAUAUAGGAAGAAUGAUGAACUAGAAGGAUAACAUACAUGAGGAUCACCCAUGUCCCAUGUGAUCACCCAU [Seems to work in some way] (Eterna round: R96, puzzle: Exclusion NG 1) | – | – | – | apparent KD of MS2 coat protein [4]: 257 nM |
| GGCAUGUAAGGAUAUGCCACGCAGUCCUUUGGGCUGCGUAAGCAGAAGGUACAUGAGGAUCACCCAUGUGAUAA [jl-ex4-4.56 ViennaUCT mod] (Eterna round: R97, puzzle: Exclusion 4) | – | 865 | 591 | – |
| AUUGAUAUUGAGGAUAUGCUUUUAUUUGUACUAGCAGAAGGCGAUACAUGAGGAUCACCCAUGUUUAUGGAAGU [JR_E6_Sub088] (puzzle: Exclusion 6) | 35.6 | – | – | apparent KD of MS2 coat protein [2]: 50.5 nM; apparent KD of MS2 coat protein [3]: 29.4 nM |
| AACGUGCAGCUUUGCUGUACGCGUACAUGAGGAUCACCCAUGUAGGAUAUGGUACGCAAAGCGUGCUAGAAGGAUAUGGAGAAA [Mat - Exclusion NG 3 - Mod of JL - D82] (Eterna round: R96, puzzle: Exclusion NG 3) | – | 14.7 | 16.2 | apparent KD of MS2 coat protein [4]: 11.5 nM |
| GGAUAAAAGUGAGGAUAUGAGGAGAGAGAGAGAUCAGAAGGCACACAUGAGGAUCACCCAUGUGAGUUCUCGAUAAGAAACACG [Prohibition 55 - Jieux - Exclusion NG 1] (Eterna round: R96, puzzle: Exclusion NG 1) | – | 14.3 | 15.9 | apparent KD of MS2 coat protein [4]: 13.2 nM |
| CAUGAUCUUCGGAUCAUGUACAUGAGGAUCACCCAUGUGACGAGUAUAUCUUCAAACAAGCUUUUUGCUCGUCUUAU [Sensor v3 - Turn-off variant 1 - 23] (puzzle: Sensor v3, turn-off variant 1) | 49.8 | – | – | apparent KD of MS2 coat protein [2]: 41.6 nM; apparent KD of MS2 coat protein [3]: 41.6 nM |
| AGUACUAACACGAAAGUGUUAGUUCAAUAAGCUUGUGAAACAUGAGGAUCACCCAUGUCCUCAUAAGCUCGUCUUAU [salish99_TOv2_r3_040] (puzzle: Sensor v3, turn-off variant 2) | 856 | – | – | apparent KD of MS2 coat protein [2]: 15.8 nM; apparent KD of MS2 coat protein [3]: 15 nM |
